# Experimental data: publication PMC5760103, “The translesion DNA polymerases Pol ζ and Rev1 are activated independently of PCNA ubiquitination upon UV radiation in mutants of DNA polymerase δ” (PLoS Genetics, 2017)
# T1: Recombinant S. cerevisiae PCNA with an His-Tag (S. cerevisiae, UniProt P15873 1-258)
# T1 construct: PCNA (proliferating cell nuclear antigen, gene POL30), S. cerevisiae; also called purified PCNA; source: E. coli (pET28c), purified on a HisTrap column
# T1 sequence (looked up): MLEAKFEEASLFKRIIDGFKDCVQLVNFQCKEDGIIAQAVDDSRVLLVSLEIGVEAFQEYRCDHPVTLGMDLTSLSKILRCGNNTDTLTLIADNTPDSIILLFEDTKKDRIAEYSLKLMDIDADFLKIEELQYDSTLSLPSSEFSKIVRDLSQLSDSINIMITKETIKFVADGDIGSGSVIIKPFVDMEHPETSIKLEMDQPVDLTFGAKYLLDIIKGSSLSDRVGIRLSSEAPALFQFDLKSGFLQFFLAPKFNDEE
# B1: pPol31 317–337 (peptide)
# peptide: KSLFDKSLESYFNGSNKEILN
# notes: Pol31 (B subunit of DNA polymerase delta), S. cerevisiae, residues 317-337 with the proposed motif LxxYF; also called Pol31 peptide; non-canonical Pol31 PIP motif peptide; source: synthetic peptide, bought: Genecust, 95% purity
# B2: pPol32 333–350 (peptide)
# peptide: KRLKKQGTLESFFKRKAK
# notes: Pol32 (C subunit of DNA polymerase delta), S. cerevisiae, residues 333-350 (the C-terminal end; K is the last residue of Pol32) with the PIP motif QxxLxxFF; also called Pol32 peptide; Pol32 PIP motif peptide; source: synthetic peptide, bought: Genecust, 95% purity
# B3: pMsh6 22–43 (peptide)
# peptide: QKKMKQSSLLSFFSKQVPSGTP
# notes: Msh6, S. cerevisiae, residues 22-43 with the canonical PIP motif; also called Msh6 peptide; canonical PIP motif of Msh6; source: synthetic peptide, bought: Genecust, 95% purity
# Target: T1, Recombinant S. cerevisiae PCNA with an …
# Assay: ITC; VP-ITC; 20–25 μM PCNA in the cell, 270 μM peptide in the syringe; 30°C; buffer T (20 mM Tris pH 7.5, 50 mM NaCl, 20 mM β-mercaptoethanol); single set of independent binding sites model
# Conditions: both partners purified
Binder,Kd [nM],dH [kcal/mol]
B1,> 50000,–
B2,460,-4.45
B3,310,-6.4
